Assay: soluble on expression in E. coli; label from the status in PepcDB or PDB records

| Sequence | soluble on expression in E. coli |
| --- | --- |
| MTKENTKSIADDGPYSGSFYGLAEDNANHGIFSSILKRKKRQQDKLSEDVKKRCGRVESYKSCCDRLHQALMYMLVENAVTSKQLVTGARTEPHYRYAGQYLKTYEIIANQGRDKTKYESLEPAIKALLTLDSEHEKKVRKQLENLKPLTKFIGEDYWEYVRLKKVYAESVDGYDEAVVLQNKGKTEDAETAATNAQTWMNDCRTKLMDFITVSISQQKAKHADCVLKFRDESVSYHKIMADSITTPEPAEGKSVVKTLKQ | not soluble |
| MTKISKIIDELNNQQADAAWITTPLNVYYFTGYRSEPHERLFALLIKKDGKQVLFCPKMEVEEVKASPFTGEIVGYLDTENPFSLYPQTINKLLIESEHLTVARQKQLISGFNVNSFGDVDLTIKQLRNIKSEDEISKIRKAAELADKCIEIGVSYLKEGVTECEVVNHIEQTIKQYGVNEMSFDTMVLFGDHAASPHGTPGDRRLKSNEYVLFDLGVIYEHYCSDMTRTIKFGEPSKEAQEIYNIVLEAETSAIQAIKPGIPLKDIDHIARNIISEKGYGEYFPHRLGHGLGLQEHEYQDVSSTNSNLLEAGMVITIEPGIYVPGVAGVRIEDDILVTNEGYEVLTHYEK | not soluble |
| MTKITVLSGKGGTGKTTVSVNMAKALSESYRVQLLDADVEEPNDHIFFNVDVSFEEPVHLMIPVVDNSVCIRCGECASTCQFGAISVFPSGTFVFESLCHGCGACSIMCPVNAISERPKEIGKIRFGTADGNISFGMGILNIGERTGVPVIRKLKKHIDEKADVVIVDAPPGTSCPVVESLRNTDFALLVTEPTAFGLHDLKLAVELTKEMGIPSGIVVNRYIPGNTIIEEFADEEGIPVLLKIPFKREIASLCAEGKLIVEAFQDMKKDFLELFEKIEVMVRLEHHHHHH | soluble |
| MTKKDKKAKGPKMSTITTKSGESLKVFEDLHDFETYLKGETEDQEFDHVHCQLKYYPPFVLHDAHDDPEKIKETANSHSKKFVRHLHQHVEKHLLKDIKTAINKPELKFHDKKKQESFDRIVWNYGEETELNAKKFKVSVEVVCKHDGAMVDVDYKTEPLQPLI | soluble |
| MTKKKAHKPGSATIALNKRARHEYFIEEEFEAGLALQGWEVKSLRAGKANISDSYVLLRDGEAFLFGANITPMAVASTHVVCDPTRTRKLLLNQRELDSLYGRVNREGYTVVALSLYWKNAWCKVKIGVAKGKKQHDKRSDIKEREWQVDKARIMKNAHR | soluble |
| MTKKVGVGQAHSKIILIGEHAVVYGYPAISLPLLEVEVTCKVVSAESPWRLYEEDTLSMAVYASLEYLDITEACVRCEIDSAIPEKRGMGSSAAISIAAIRAVFDYYQADLPHDVLEILVNRAEMIAHMNPSGLDAKTCLSDQPIRFIKNVGFTELEMDLSAYLVIADTGVYGHTREAIQVVQNKGKDALPFLHALGELTQQAEVAISQKYAEGLGLIFSQAHLHLKEIGVSSPEADFLVETALSYGALGAKMSGGGLGGCIIALVTNLTHAQELAERLEEKGAVQTWIESL | not soluble |
| MTKLNAFLDTLGEGIRQKFWDIVAAAKTDAQTNLPSDKAKELAGEVISDFEQGNLFKSHQEISAELKSKFESLDDADKAAVKNLAKVYGKQAKALVMPHLPEDCKAKTDATDDAGKAAVAGGFDTGDYLPRKKRELLFIDNLTAAFREMRSRRGF | not soluble |
| MTKPVLQDGETVVCQGTHAAIASELQAIAPEVAQSLAEFFAVLADPNRLRLLSLLARSELCVGDLAQAIGVSESAVSHQLRSLRNLRLVSYRKQGRHVYYQLQDHHIVALYQNALDHLQECR | soluble |
| MTKQIKVGVIGVGQMGQYHAEIYQKLPQVELVAICEFNDERRAEMAEKFQCKAYKDYHELLANTEIEAVIIVLPDNMHRDCVEEAVKHKKHILLEKPLAKELEDGKAMYELTKDYDKVFTVGFLLRFDPRFNMIKQRLDNGELGDIIHLYCRRNSPITGPKRYIGASDLSMHVMIHDIDYINWYMDSEPVKVIAKSRSVLLKEYGMNDVIYAIVTYENGAIACLEACWVLPENSPTIIDDKLELVGTKGVAYVDSCDHGVRFVSEKGVSYPDSRHWYYTNGEVSGDLAEEVMAFINNVANNTKSIITPKEAYDSLRVVDAIERSIAEGKEVSL | not soluble |
| MTKQTKYVQTVIDELATKGVEALDAMANFTQEQVDHIVHQAAIAALDKHMYLAKLAVDETGRGIYEDKAIKNMYASEYIWNSIKYDKPVGVIAEDKEQGLVSIAEPVGVICGVTPTTNPTSITIFKALIAL | not soluble |
| MTKSLFRQSFLTDTLDVHIDVAPAEQVLSNGVQLKLYQRGVLEVIPENPTQETKNIIISCGIHGDETAPMELVDSIIKDIESGFQKVDARCLFIIAHPESTLAHTRFLEENLNRLFDEKEHEPTKELAIADTLKLLVRDFYQDTEPKTRWHLDLHCAIRGSKHYTFAVSPKTRHPVRSKALVDFLDSAHIEAVLLSNSPSSTFSWYSAENYSAQALTMELGRVARIGENALDRLTAFDLALRNLIAEAQPEHLSKPCIKYRVSRTIVRLHDDFDFMFDDNVENFTSFVHGEVFGHDGDKPLMAKNDNEAIVFPNRHVAIGQRAALMVCEVKTRFEEGELVYDLEHHHHHH | soluble |
| MTKSQIMDLSNFYQDTDYPSGRLIALLILSLGLTPAEIANLKKADFDTTFNILSIEKSQMKRILKLPEDLLPFLLESLEEDGDLVFEHNGKPYSRQWFFNQLTDFLNEKNEQQLTAQLLREQFILKQKENGKTMTELSRLLGLKTPITLERYYRLEHHHHHH | not soluble |
| MTKTWEQLSAIQPIGVKMLMNSIAKERISHAYLLEGEKGTGKFATAIQMAKSFLCSQRNRVEPCHVCTNCKRIDSGNHPNLHIVKPDGLSIKKQQIHDLQEEFSKTGLEANKKVYIIEHADRMTANAANALLKFLEEPSSDTTAILLTEQSHQILNTILSRCQVVTFRPLPTESLIRRLQDEGITVSLSTLAAQLTNSFDEALTLCNDEWFAQARALVIKLCEALEKDKASIFFVQEKWGKHFGEKEQLQQGLDMLLLIYKDLLYVQLGEEDRLVFREQKEMFESFSYAQKRIVSALFNILEAKNRINANVNAQLVFEQLVLRLQEG | not soluble |
| MTKVQKRLFEVADKQYALFQAKLIPNIPQERVIGVRVPVLRKIAREFEKEPECRDFLNTLPHAYYDENMLHSILLSNVKNYEECIAAVEAFLPYVDNWAVCDTLRPKVFGKHKDKLLPRIKDWIASDKTYTCRFGIGMLMMHYLDKDFKPEYLELPQKVDSEEYYVKMMIAWFYATALANQWDATIPYIEEHRLSDWVHKKTIQKACESYRITDEQKAYLKTLR | not soluble |
| MTLDANSAPVRDMASAHFSPGEDCRRKIRDLCRQARISVDICVFTISDDQLSDEIRACHQRGVAVRVISDSEKQFDVGSDIAALREAGVPVRIDDTPFHMHHKFAVFDGRTLLNGSFNWTRSATTGNEENLLVIDHPQLVASYLKEFNELWSRYAPRLEHHHHHH | not soluble |
| MTLEISNDYGKIDISNEVIASVVGGKAVECYGIVGMASRQQVRDGIAEILGHENYAKGIKVTENNGVVDIDMYIIVSYGVKISEVANNVQSTVKYTLEKSLNVSVNSINIYVQGVRVNNTGKKALEHHHHHH | not soluble |
| MTLETAFMLPVQDAQHSFRRLLKAMSEPGVIVALHQLKRGWQPLNIATTSVLLTLADNDTPVWLSTPLNNDIVNQSLRFHTNAPLVSQPEQATFAVTDEAISSEQLNALSTGTAVAPEAGATLILQVASLSGGRMLRLTGAGIAEERMIAPQLPECILHELTERPHPFPLGIDLILTCGERLLAIPRTTHVEVC | soluble |
| MTLGELREEVWNALARYDLALHPTPPHGHHPNFLGARRAAERLLKTPEFQGARRVLAGMDAVLKPLREEALRQGKELLLPHPDRPGEFLLLRDVDPRKLKRVREAYRFGVRVALEEATPDLVLIGAVAVDEEGGWVGKGYGFPQSWLRVEAPFATLAHPVMVYPRLPVPPERRVDLIATPQRLLRLG | soluble |
| MTLLLPRRRFSALLDHIKNWTSSIRADKQYRSFSTGDLVSPSQPSAFEPDFMEMEFGATPTTSSLPSHFDDNDLVPVEFKKSGVKLIPQGTRKAEKAKKFGSFEELSKVKLEDIHRAQSWFFVDVDPKSAERILMSNGFSDSSFLISFFRQKYVLSIWRKTKVEHLVIRNYQKKNGTMAFQLDIDRSFKNLVELTEYYTKNKSYVLCTKLSKGVSRPRRNPDTRTRA | not soluble |
| MTLSGGTIDILKTRSLAKLQGSKEVMKQKLEIPIHGSVTDNIFSEVRDSFRRNFTEGWEKAGAAFCVIHKGKVIVDLWGGYADKECFKEWKEDTISTIFSCTKSVTAICFAILVDRGLLKYSDKVTKYWPEFGQNGKQDITIEMVLSHTAGLPYFPGVKFTEEDLTDNNKLSHMIENLKPVFAPGTRTAYHALTFGWLTDQIFRRVDSQKRTVGQFFKDEIATKHYIDIHIGECSNEENRLARLFKCPATLVSREIAYDRSILKLARYYYNPRGLFAAARRNLSLHGSDFTMFNNSDLRVVGQPAVNGIGSARAMAQLHQLVLDGTLLSKETFDIIKHPRKMTSFDYLIGEPQNKEHGFTYFKSPLNTWQFGHPGVGGQMVRVDVENDLIVAYLTNGMKTAGCEDHVFTFNRLQRKVYECLKRIPKFELPPPEDIVENE | not soluble |
| MTLTASSSSRAVTNSPVVVALDYHNRDDALAFVDKIDPRDCRLKVGKEMFTLFGPQFVRELQQRGFDIFLDLKFHDIPNTAAHAVAAAADLGVWMVNVHASGGARMMTAAREALVPFGKDAPLLIAVTVLTSMEASDLVDLGMTLSPADYAERLAALTQKCGLDGVVCSAQEAVRFKQVFGQEFKLVTPGIRPQGSEAGDQRRIMTPEQALSAGVDYMVIGRPVTQSVDPAQTLKAINASLQRSA | soluble |
| MTMNHDDRLRNRYEACRSGMQELDMLRAKHTLLIQNLRSRLPIIPGSLDDVQTREKKTRDVFLDRFSLQSVDSGISSQNTISSTRSSTPEDFKTSNRHSNIYENSSTTMNYSTFRKMSLESTHSSVSHSMQNDVEKTSFAPPVITSRSCHRGAWKTSPQRIRPKSMFDSTTSNTEYLFSKPPRHPIDLTKERRSAFTVLNQSSKRHSSIEPSLPSTLSQLSLNDEAKTPQKAEVIRWNKQKADAMFRANVVYVSSTEQPTKPAPLRFSPARSPPVRRALPIELKPTQHFAQPCKIRSPKLNTKTVFAAKPIAVRPSISPKVAQRSTWLQSQPL | not soluble |
| MTMPYYASAEQIMRDRSELARKGIARGRSVVVLTFRDGVLFVAENPSTALHKVSELYDRLGFAAVGKYNEFENLRRAGIVHADMRGYSYDRRDVTGRSLANAYAQTLGTIFTEQPKPYEVEICVAEVGRVGSPKAPQLYRITYDGSIVDEQHFVVMGGTTEPIATAMRESYRADLDLEAAVGIAVNALRQGGAGEGEKRNVDVASLEVAVLDQSRPRRAFRRIAGTALEQLVPAEPAAASESAPEPKPDTETKPADTQD | soluble |
| MTNATIAPTTTAAPVTKSVDAPTADENTPLFSPSLISPDVLAVLPADYTIRPLCRSDYKRGYLDVLRVLTTVGDINEEQWNSRYEWIRARSDEYYLLVVCDGEGRIVGTGSLVVERKFIHSLGMVGHIEDIAVEKGQQGKKLGLRIIQALDYVAEKVGCYKTILDCSEANEGFYIKCGFKRAGLEMAHYY | soluble |
| MTNDDKCTSFFDKNYQTPEFIENKKRQAQQGRRRFLKSAAGMGALASLPALSVSAKAQTSLNELLKTLVKTDPWLTLDATLNQLLPSSPTGPSASEIRATAYLYQVMTVQPTEQDEKDFILKGVGWLNGYANSEKSANFAQLSFADKEQLLRGISNSTAGQNWLNTLLGYIFQAMLSPASYGGNPDGIGWAWLEHQAGFPMPEKGQRYFELPTRARIDLISRVNYDAKRLASSRNKSHQGTKKS | not soluble |

— the DeepSol protein solubility set
